Test [1] concerns the target T1, Placenta Growth Factor (PlGF), human (human, UniProt P49763 21-149).
T1 chain: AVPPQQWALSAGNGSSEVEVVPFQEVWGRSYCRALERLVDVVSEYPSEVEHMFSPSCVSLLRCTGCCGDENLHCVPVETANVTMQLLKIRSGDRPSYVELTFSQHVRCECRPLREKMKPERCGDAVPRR
Kind of test: ELISA.

Test [2] concerns the target Hepatocyte Growth Factor (HGF), human (human, UniProt P14210 32-728). In words: ELISA. On the technique in general: In an ELISA, binding on a coated surface is turned into a signal by an enzyme label.

Usually EC50 stands for the midpoint of the concentration-response curve. A low value points to a more potent agent.

Sequence of Hepatocyte Growth Factor (HGF), human (P14210 32-728): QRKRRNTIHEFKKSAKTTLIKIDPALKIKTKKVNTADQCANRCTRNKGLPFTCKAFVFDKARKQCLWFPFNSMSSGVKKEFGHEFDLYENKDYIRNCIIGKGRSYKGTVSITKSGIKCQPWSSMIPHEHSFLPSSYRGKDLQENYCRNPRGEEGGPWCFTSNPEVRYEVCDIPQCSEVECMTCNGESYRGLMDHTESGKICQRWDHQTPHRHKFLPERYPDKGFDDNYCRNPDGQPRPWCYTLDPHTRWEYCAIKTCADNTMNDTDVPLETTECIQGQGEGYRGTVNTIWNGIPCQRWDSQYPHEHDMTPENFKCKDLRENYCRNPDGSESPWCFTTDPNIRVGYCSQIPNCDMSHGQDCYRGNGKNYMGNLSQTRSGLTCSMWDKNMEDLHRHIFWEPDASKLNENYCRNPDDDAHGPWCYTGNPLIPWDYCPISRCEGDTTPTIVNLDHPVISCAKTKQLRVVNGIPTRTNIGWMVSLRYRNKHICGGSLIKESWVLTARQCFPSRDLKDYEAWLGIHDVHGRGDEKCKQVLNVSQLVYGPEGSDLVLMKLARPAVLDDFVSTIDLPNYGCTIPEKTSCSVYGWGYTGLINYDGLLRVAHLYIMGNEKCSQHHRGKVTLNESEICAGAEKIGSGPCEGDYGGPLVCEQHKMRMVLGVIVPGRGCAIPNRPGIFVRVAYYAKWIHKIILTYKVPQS

B1: HC 5/SLC 9 (antibody)
chain 1: GQGTLVTVSSASTKGQPVLHQPPAMSSALGTTIRLTCTLRNDHDIGVYSVYWYQQRPGHPPRFLLRYFSQSDKSQGPQVPPRFSGSKDVARNRGYLSISELQPEDEAMYYCAMGARSRCWPRGFQSKHNSVTHVFGSGTQLTVLSQPKATPSVTLFPPSSEELQANKATLVCLMNDFYPGILTVTWKADGTPITQGVEMTTPSKQSNNKYAASSYLSLTPEQWRSRRSYSCQVMHEGSTVEKTVAPAECS
chain 2: MSWAPVLLMLFVYCTGCGPQPVLHQPPAMSSALGTTIRLTCTLRNDHDIGVYSVYWYQQRPGHPPRFLLRYFSQSDKSQGPQVPPRFSGSKDVARNRGYLSISVTHVFGSGTQLTVLSQPKATPSVQVQLVQ
Regarding B1, the concentration for a half-maximal effect (EC50) worked out at 0.066 nM in test [1] and 0.052 nM in test [2].

B2: HC 5/SLC 3 (antibody)
chain 1: GQGTLVTVSSASTKGQPVLHQPPAMSSALGTTIRLTCTLRNDHDIGVYSVYWYQQRPGHPPRFLLRYFSQSDKSQGPQVPPRFSGSKDVARNRGYLSISELQPEDEAMYYCAMGARSRCWPRGFQSKHNSVTHVFGSGTQLTVLSQPKATPSVTLFPPSSEELQANKATLVCLMNDFYPGILTVTWKADGTPITQGVEMTTPSKQSNNKYAASSYLSLTPEQWRSRRSYSCQVMHEGSTVEKTVAPAECS
chain 2: MSWAPVLLMLFVYCTGCGPQPVLHQPPAMSSALGTTIRLTCTLRNDHDIGVYSVYWYQQRPGHPPRFLLRYFSQSDKSQGPQVPPRFSGSKDVARNRGYLSISVTHVFGSGTQLTVLSQPQVQLVQ
B2: the concentration giving a half-maximal response (EC50) in test [1] stood at 0.181 nM; in test [2], 0.064 nM.

B3: HC 6/SLC 9 (antibody)
chain 1: GQGTLVTVSSASTKGPQPVLHQPPAMSSALGTTIRLTCTLRNDHDIGVYSVYWYQQRPGHPPRFLLRYFSQSDKSQGPQVPPRFSGSKDVARNRGYLSISELQPEDEAMYYCAMGARSRCWPRGFQSKHNSVTHVFGSGTQLTVLSQPKATPSVTLFPPSSEELQANKATLVCLMNDFYPGILTVTWKADGTPITQGVEMTTPSKQSNNKYAASSYLSLTPEQWRSRRSYSCQVMHEGSTVEKTVAPAECS
chain 2: MSWAPVLLMLFVYCTGCGPQPVLHQPPAMSSALGTTIRLTCTLRNDHDIGVYSVYWYQQRPGHPPRFLLRYFSQSDKSQGPQVPPRFSGSKDVARNRGYLSISVTHVFGSGTQLTVLSQPKATPSVQVQLVQ
Consider B3, for which the EC50 in test [1] was 0.053 nM; in test [2] it was 0.047 nM.

B4: HC 5/SLC 4 (antibody)
chain 1: GQGTLVTVSSASTKGQPVLHQPPAMSSALGTTIRLTCTLRNDHDIGVYSVYWYQQRPGHPPRFLLRYFSQSDKSQGPQVPPRFSGSKDVARNRGYLSISELQPEDEAMYYCAMGARSRCWPRGFQSKHNSVTHVFGSGTQLTVLSQPKATPSVTLFPPSSEELQANKATLVCLMNDFYPGILTVTWKADGTPITQGVEMTTPSKQSNNKYAASSYLSLTPEQWRSRRSYSCQVMHEGSTVEKTVAPAECS
chain 2: MSWAPVLLMLFVYCTGCGPQPVLHQPPAMSSALGTTIRLTCTLRNDHDIGVYSVYWYQQRPGHPPRFLLRYFSQSDKSQGPQVPPRFSGSKDVARNRGYLSISVTHVFGSGTQLTVLSQPKQVQLVQ
For the molecule B4, the concentration giving a half-maximal response (EC50) was 0.207 nM in test [1] and 0.065 nM in test [2].

B5: HC 5/SLC 5 (antibody)
chain 1: GQGTLVTVSSASTKGQPVLHQPPAMSSALGTTIRLTCTLRNDHDIGVYSVYWYQQRPGHPPRFLLRYFSQSDKSQGPQVPPRFSGSKDVARNRGYLSISELQPEDEAMYYCAMGARSRCWPRGFQSKHNSVTHVFGSGTQLTVLSQPKATPSVTLFPPSSEELQANKATLVCLMNDFYPGILTVTWKADGTPITQGVEMTTPSKQSNNKYAASSYLSLTPEQWRSRRSYSCQVMHEGSTVEKTVAPAECS
chain 2: MSWAPVLLMLFVYCTGCGPQPVLHQPPAMSSALGTTIRLTCTLRNDHDIGVYSVYWYQQRPGHPPRFLLRYFSQSDKSQGPQVPPRFSGSKDVARNRGYLSISVTHVFGSGTQLTVLSQPKAQVQLVQ
With B5, the EC50 in test [1] was 0.256 nM; in test [2], 0.063 nM.

B6: HC 9/SLC 15 (antibody)
chain 1: GQGTLVTVSSASTKGPSVFQPVLHQPPAMSSALGTTIRLTCTLRNDHDIGVYSVYWYQQRPGHPPRFLLRYFSQSDKSQGPQVPPRFSGSKDVARNRGYLSISELQPEDEAMYYCAMGARSRCWPRGFQSKHNSVTHVFGSGTQLTVLSQPKATPSVTLFPPSSEELQANKATLVCLMNDFYPGILTVTWKADGTPITQGVEMTTPSKQSNNKYAASSYLSLTPEQWRSRRSYSCQVMHEGSTVEKTVAPAECS
chain 2: MSWAPVLLMLFVYCTGCGPQPVLHQPPAMSSALGTTIRLTCTLRNDHDIGVYSVYWYQQRPGHPPRFLLRYFSQSDKSQGPQVPPRFSGSKDVARNRGYLSISVTHVFGSGTQLTVLSQPKATPSVTGGGGSQVQLVQ
As for B6, the concentration giving a half-maximal response (EC50) in test [1] stood at 0.047 nM; in test [2] it was 0.049 nM.

B7: HC 6/SLC 2 (antibody)
chain 1: GQGTLVTVSSASTKGPQPVLHQPPAMSSALGTTIRLTCTLRNDHDIGVYSVYWYQQRPGHPPRFLLRYFSQSDKSQGPQVPPRFSGSKDVARNRGYLSISELQPEDEAMYYCAMGARSRCWPRGFQSKHNSVTHVFGSGTQLTVLSQPKATPSVTLFPPSSEELQANKATLVCLMNDFYPGILTVTWKADGTPITQGVEMTTPSKQSNNKYAASSYLSLTPEQWRSRRSYSCQVMHEGSTVEKTVAPAECS
chain 2: MSWAPVLLMLFVYCTGCGPQPVLHQPPAMSSALGTTIRLTCTLRNDHDIGVYSVYWYQQRPGHPPRFLLRYFSQSDKSQGPQVPPRFSGSKDVARNRGYLSISVTHVFGSGTQLTVLSQQVQLVQ
B7: the figures for the EC50 in test [1] and in test [2] were 0.229 nM and 0.06 nM, respectively.

B8: HC 9/SLC 2 (antibody)
chain 1: GQGTLVTVSSASTKGPSVFQPVLHQPPAMSSALGTTIRLTCTLRNDHDIGVYSVYWYQQRPGHPPRFLLRYFSQSDKSQGPQVPPRFSGSKDVARNRGYLSISELQPEDEAMYYCAMGARSRCWPRGFQSKHNSVTHVFGSGTQLTVLSQPKATPSVTLFPPSSEELQANKATLVCLMNDFYPGILTVTWKADGTPITQGVEMTTPSKQSNNKYAASSYLSLTPEQWRSRRSYSCQVMHEGSTVEKTVAPAECS
chain 2: MSWAPVLLMLFVYCTGCGPQPVLHQPPAMSSALGTTIRLTCTLRNDHDIGVYSVYWYQQRPGHPPRFLLRYFSQSDKSQGPQVPPRFSGSKDVARNRGYLSISVTHVFGSGTQLTVLSQQVQLVQ
Take B8: the results for the concentration for a half-maximal effect (EC50) in test [1] and in test [2] were 0.211 nM and 0.062 nM, respectively.

B9: HC 10/SLC 3 (antibody)
chain 1: GQGTLVTVSSASTKGPSVFPQPVLHQPPAMSSALGTTIRLTCTLRNDHDIGVYSVYWYQQRPGHPPRFLLRYFSQSDKSQGPQVPPRFSGSKDVARNRGYLSISELQPEDEAMYYCAMGARSRCWPRGFQSKHNSVTHVFGSGTQLTVLSQPKATPSVTLFPPSSEELQANKATLVCLMNDFYPGILTVTWKADGTPITQGVEMTTPSKQSNNKYAASSYLSLTPEQWRSRRSYSCQVMHEGSTVEKTVAPAECS
chain 2: MSWAPVLLMLFVYCTGCGPQPVLHQPPAMSSALGTTIRLTCTLRNDHDIGVYSVYWYQQRPGHPPRFLLRYFSQSDKSQGPQVPPRFSGSKDVARNRGYLSISVTHVFGSGTQLTVLSQPQVQLVQ
Regarding B9, the results for the EC50 in test [1] and in test [2] were 0.121 nM and 0.074 nM, respectively.

B10: HC 4/SLC 5 (antibody)
chain 1: GQGTLVTVSSASTKQPVLHQPPAMSSALGTTIRLTCTLRNDHDIGVYSVYWYQQRPGHPPRFLLRYFSQSDKSQGPQVPPRFSGSKDVARNRGYLSISELQPEDEAMYYCAMGARSRCWPRGFQSKHNSVTHVFGSGTQLTVLSQPKATPSVTLFPPSSEELQANKATLVCLMNDFYPGILTVTWKADGTPITQGVEMTTPSKQSNNKYAASSYLSLTPEQWRSRRSYSCQVMHEGSTVEKTVAPAECS
chain 2: MSWAPVLLMLFVYCTGCGPQPVLHQPPAMSSALGTTIRLTCTLRNDHDIGVYSVYWYQQRPGHPPRFLLRYFSQSDKSQGPQVPPRFSGSKDVARNRGYLSISVTHVFGSGTQLTVLSQPKAQVQLVQ
For the molecule B10, the EC50 in test [1] was 0.282 nM; in test [2], 0.059 nM.

B11: HC 7/SLC 8 (antibody)
chain 1: GQGTLVTVSSASTKGPSQPVLHQPPAMSSALGTTIRLTCTLRNDHDIGVYSVYWYQQRPGHPPRFLLRYFSQSDKSQGPQVPPRFSGSKDVARNRGYLSISELQPEDEAMYYCAMGARSRCWPRGFQSKHNSVTHVFGSGTQLTVLSQPKATPSVTLFPPSSEELQANKATLVCLMNDFYPGILTVTWKADGTPITQGVEMTTPSKQSNNKYAASSYLSLTPEQWRSRRSYSCQVMHEGSTVEKTVAPAECS
chain 2: MSWAPVLLMLFVYCTGCGPQPVLHQPPAMSSALGTTIRLTCTLRNDHDIGVYSVYWYQQRPGHPPRFLLRYFSQSDKSQGPQVPPRFSGSKDVARNRGYLSISVTHVFGSGTQLTVLSQPKATPSQVQLVQ
For the molecule B11, the figures for the EC50 in test [1] and in test [2] were 0.095 nM and 0.056 nM, respectively.

B12: HC 7/SLC 7 (antibody)
chain 1: GQGTLVTVSSASTKGPSQPVLHQPPAMSSALGTTIRLTCTLRNDHDIGVYSVYWYQQRPGHPPRFLLRYFSQSDKSQGPQVPPRFSGSKDVARNRGYLSISELQPEDEAMYYCAMGARSRCWPRGFQSKHNSVTHVFGSGTQLTVLSQPKATPSVTLFPPSSEELQANKATLVCLMNDFYPGILTVTWKADGTPITQGVEMTTPSKQSNNKYAASSYLSLTPEQWRSRRSYSCQVMHEGSTVEKTVAPAECS
chain 2: MSWAPVLLMLFVYCTGCGPQPVLHQPPAMSSALGTTIRLTCTLRNDHDIGVYSVYWYQQRPGHPPRFLLRYFSQSDKSQGPQVPPRFSGSKDVARNRGYLSISVTHVFGSGTQLTVLSQPKATPQVQLVQ
On to B12, for which the 50% effective concentration (EC50) in test [1] turned out to be 0.106 nM; in test [2] it was 0.056 nM.

B13: HC 7/SLC 3 (antibody)
chain 1: GQGTLVTVSSASTKGPSQPVLHQPPAMSSALGTTIRLTCTLRNDHDIGVYSVYWYQQRPGHPPRFLLRYFSQSDKSQGPQVPPRFSGSKDVARNRGYLSISELQPEDEAMYYCAMGARSRCWPRGFQSKHNSVTHVFGSGTQLTVLSQPKATPSVTLFPPSSEELQANKATLVCLMNDFYPGILTVTWKADGTPITQGVEMTTPSKQSNNKYAASSYLSLTPEQWRSRRSYSCQVMHEGSTVEKTVAPAECS
chain 2: MSWAPVLLMLFVYCTGCGPQPVLHQPPAMSSALGTTIRLTCTLRNDHDIGVYSVYWYQQRPGHPPRFLLRYFSQSDKSQGPQVPPRFSGSKDVARNRGYLSISVTHVFGSGTQLTVLSQPQVQLVQ
For the molecule B13, the values for the EC50 in test [1] and in test [2] were 0.182 nM and 0.067 nM, respectively.

(Values after US20150045540A1 (published 2015).)
